Source: PMC11048322, “Weak Value Amplification-Based Biochip for Highly Sensitive Detection and Identification of Breast Cancer Exosomes”

Columns and labels:
Conditions in all cases: protein: native; label: Au NP (about 58 nm) via thiol
[1] = biological target: T1, CD63 (on MDA-MB-231 exosomes) (UniProt P08962 2-238); test: weak value amplification optical biosensor; multivalent Au NP-aptamer on exosomes; no significant CW shift; Au NP-aptamer dispersed in ultrapure water, flowed over exosomes captured on Zr-ionized glass; pH and temperature not stated
T1 sequence (P08962 2-238): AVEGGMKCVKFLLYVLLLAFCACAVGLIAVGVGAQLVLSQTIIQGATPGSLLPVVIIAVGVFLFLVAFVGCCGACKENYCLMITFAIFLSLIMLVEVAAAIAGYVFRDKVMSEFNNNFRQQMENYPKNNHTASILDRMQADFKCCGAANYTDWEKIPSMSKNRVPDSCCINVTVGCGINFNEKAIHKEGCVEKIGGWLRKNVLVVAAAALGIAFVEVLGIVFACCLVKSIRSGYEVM

[2] = biological target: T2, EpCAM (on MDA-MB-231 exosomes) (UniProt P16422 24-314); test: weak value amplification optical biosensor; multivalent Au NP-aptamer on exosomes; CW shift about 0.85 nm; Au NP-aptamer dispersed in ultrapure water, flowed over exosomes captured on Zr-ionized glass; pH and temperature not stated
T2 sequence: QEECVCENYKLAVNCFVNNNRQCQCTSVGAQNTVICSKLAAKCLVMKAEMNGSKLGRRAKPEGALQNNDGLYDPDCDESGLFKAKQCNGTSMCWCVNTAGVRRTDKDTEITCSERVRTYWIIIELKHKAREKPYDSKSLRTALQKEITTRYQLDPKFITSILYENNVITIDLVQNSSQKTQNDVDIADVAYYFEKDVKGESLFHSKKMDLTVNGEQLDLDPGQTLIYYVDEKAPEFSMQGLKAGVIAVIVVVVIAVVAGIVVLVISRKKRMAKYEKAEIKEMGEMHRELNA

[3] = biological target: T1, CD63 (on MDA-MB-231 exosomes); test: weak value amplification optical biosensor; TEM; multivalent Au NP-aptamer on exosomes; Au NP-aptamer dispersed in ultrapure water, flowed over exosomes captured on Zr-ionized glass; pH and temperature not stated

Binder: ACTCTTCACCCGCACATTCGCATCGCCCAAGC (ssDNA, 5'-SH C6) [Scrambled CD63 (SCD63)]
- binding result [1]: no binding

Binder: CACTACAGAGGTTGCGTCTGTCCCACGTTGTCATGGGGGGTTGGCCTG (ssDNA, 5'-SH C6) [EpCAM aptamer]
- binding result [2]: binds

Binder: CACCCCACCTCGCTCCCGTGACACTAATGCTA (ssDNA, 5'-SH C6) [CD63 aptamer]
- binding result [3]: binds
